The source of these data is article PMC11677724, “Preclinical Study of a Dual-Target Molecular Probe Labeled with ^68Ga Targeting SSTR2 and FAP” (Pharmaceuticals, 2024).

Series [1] in a line: Partition coefficient (log P), n-octanol/PBS. Format: physicochemical. The conditions noted are these: shake-flask n-octanol/PBS (0.1 mol/L, pH 7.4), 14.8 MBq in 100 µL, vortexed 2 min at room temperature, centrifuged 3000 rpm 5 min, γ-counter CPM; mean ± SD, repeated three times; read-out: Log p. Here is the method:
In a 15 mL centrifuge tube, 2.9 mL of PBS (0.1 mol/L, pH = 7.4) and 3 mL of n-octanol were added. [^68Ga]Ga-TATE-46, [^68Ga]Ga-DOTA-TATE, or [^68Ga]Ga-FAPI-46 (14.8 MBq, 100 µL) were added to each tube. The mixture was vortexed at room temperature for 2 min to ensure thorough blending, and then centrifuged at room temperature (effective centrifuge radius 12 cm, 3000 rpm) for 5 min. After allowing sufficient time for phase separation, three 500 µL samples were taken from each layer. The radioactivity of each sample was measured using a γ-counter (count per minute, CPM), and log p = log (n-octanol CPM/water CPM) was calculated. The experiment was repeated three times.

Series [2] in a line: In vitro stability in physiological saline/PBS or FBS, radio-HPLC. The conditions noted are these: 1.85 MBq in 5 µL, 37 °C, 2 h. Format: in vitro ADME. As to the method: A measure of 5 µL of [^68Ga]Ga-TATE-46 (1.85 MBq) was added to 300 µL of PBS or FBS and incubated at 37 °C for 2 h. Subsequently, the radiochemical purity was determined using HPLC.
A short description of series [3]: Pharmacokinetics, blood time-activity curves, two-compartment model. It is filed as in vivo, BALB/c mice. The conditions noted are these: female healthy BALB/c mice, n = 3 per group, 0.37 MBq tail vein, blood 2-120 min, γ-counter, two-compartment model (WinNonlin). Here is the method: Nine female healthy BALB/c mice were randomly divided into three groups (with three mice in each group) using a random number table. Each group was administered 100 µL of [^68Ga]Ga-TATE-46, [^68Ga]Ga-DOTA-TATE, or [^68Ga]Ga-FAPI-46 (0.37 MBq) via tail vein injection. Blood samples (5 µL × 3) were collected at 2, 5, 10, 15, 30, 60, 90, and 120 min post-injection via tail vein. The radioactivity in the blood was measured with a γ-counter and converted to blood radioactivity concentration (kBq/mL). The pharmacokinetic data (time–blood radioactivity concentration) were analyzed by using the two-compartment model in the pharmacokinetic software WinNonlin (Certara, Louis, MO, USA, 2018-06) to determine the distribution and clearance half-life parameters of the radiopharmaceuticals in the mice.

A short description of series [4]: Micro PET imaging with ROI quantification, MC38 tumor-bearing mice. Conditions: female, BALB/c nude, mouse, iv, total radioactivity, 1 h p.i., 5.55–7.4 MBq tail vein, MC38 tumors (SSTR2/FAP, negative), read-out: uptake in MC38 tumors (ROI quantitative analysis of PET images). It is filed as in vivo. Here is the method: Female BALB/c nude mice were obtained from Charles River Laboratories (Beijing, China). […] Approximately 5 × 10^6 cells were implanted into the right shoulder of each mouse to establish an NCI-H727 tumor model and Mc38 tumor model. Once the tumor volume reached 200–300 mm^3, the mice were used for imaging or biodistribution studies. All animal experiments were carried out in accordance with the National Institutes of Health Guidelines for the Care and Use of Laboratory Animals and were approved by the Animal Protection and Utilization Committee of the General Hospital of the PLA (Approval No.: S2023-209-1).
Each set of NCI-H727 tumor xenograft models (n = 3) was administered with [^68Ga]Ga-TATE-46, [^68Ga]Ga-DOTA-TATE, or [^68Ga]Ga-FAPI-46 (5.55–7.4 MBq, 150 µL/mouse) through the tail vein. Static PET scans were performed at 30 min, 1 h, 2 h, and 4 h after injection for 10 min each. In blocking studies, unlabeled precursors (FAPI-46, DOTA-TATE, FAPI-46 + DOTA-TATE, 10 mg/kg) were co-injected with [^68Ga]Ga-TATE-46. After image acquisition, the images were reconstructed using the three-dimensional ordered subset expectation maximization (3D-OSEM) algorithm and analyzed on the Recon/Avator-s-10 workstation. The percentage of injected dose per gram of tissue (%ID/g) was determined by delineating regions of interest.

Series [5] deals with MC38 cells (SSTR2/FAP, negative). Briefly: Cell uptake in MC38 cells (negative control). It is filed as cell-based. Conditions: 1.48×10^4 Bq/well, all time points, all p < 0.001. Here is the method:
The NCI-H727 and Mc38 cell lines were supplied by the Stem Cell Bank of the Chinese Academy of Sciences and were cultivated in Roswell Park Memorial Institute (RPMI-1640) medium with 10% (v/v) fetal bovine serum (FBS) at 37 °C with 5% CO2. All cells were cultured until they reached 80–90% confluence before undergoing trypsinization.
In blocking experiments, an excessive amount of unlabeled FAPI-46, DOTA-TATE, or FAPI-46 + DOTA-TATE (10 µg/well) was added as an inhibitor along with [^68Ga]Ga-TATE-46 to the cells. After 1 h, the cells were processed using the same method. Finally, the cell lysates were gathered, and the radioactivity was measured using a γ-counter. Mc38 cells were used as a negative control, with only [^68Ga]Ga-TATE-46 (1.48 × 10^4 Bq/well, 100 µL) added, and the rest of the procedure was followed as described above.

SMILES strings stand for the structures.

Consider `C[C@@H](O)[C@H](NC(=O)[C@@H]1CSSC[C@H](NC(=O)[C@@H](Cc2ccccc2)NC(=O)CCCCCNC(=O)CCCCCNC(=O)[C@H](Cc2ccccc2)NC(=O)C(CCC(=O)N[C@@H](Cc2ccccc2)C(=O)NCCCCCC(=O)NCCCCCC(=O)N2CCN(CCCN(C)c3ccc4nccc(C(=O)NCC(=O)N5CC(F)(F)C[C@H]5C#N)c4c3)CC2)NC(=O)CN2CCN(CC(=O)O)CCN(CC(=O)O)CCN(CC(=O)O)CC2)C(=O)N[C@@H](Cc2ccc(O)cc2)C(=O)N[C@H](Cc2c[nH]c3ccccc23)C(=O)N[C@@H](CCCCN)C(=O)N[C@@H]([C@@H](C)O)C(=O)N1)C(=O)O` (stereo partly shown) [[^68Ga]Ga-TATE-46, metal not drawn], for which the logD in series [1] was -0.2 ± 0.05. In addition, in series [2] (300 µL FBS), the “In vitro stability in FBS (HPLC chromatogram)” value is given as “only one peak”. The “In vitro stability in physiological saline (HPLC chromatogram)” value in series [2] (physiological saline (method: 300 µL PBS)) is “only one peak”. Also, in series [3], the distribution half-life is recorded as 1.79 min and the elimination half-life turned out to be 37.75 min. In addition, in series [4], the tissue uptake at 1 h amounted to 2.05 ± 0.09 %ID/g. Moreover, in series [5], the “cellular uptake in MC38 cells compared to NCI-H727 cells” value is “significantly lower”.
